{"source": "patent US20130071381A1", "about": "(Takeda / Millennium, published 2013)", "key": {"[1]": {"target": "T1, human CC-chemokine receptor 2 (CCR2), endogenous on THP-1 cells, THP-1 membranes and human blood cells (human, UniProt P41597 1-374)", "T1 construct": "whole, on cells; The isoform is not specified for THP-1 cells or PBMC; also called CKR-2; MCP-1RA", "T1 sequence (P41597 whole entry, canonical isoform)": "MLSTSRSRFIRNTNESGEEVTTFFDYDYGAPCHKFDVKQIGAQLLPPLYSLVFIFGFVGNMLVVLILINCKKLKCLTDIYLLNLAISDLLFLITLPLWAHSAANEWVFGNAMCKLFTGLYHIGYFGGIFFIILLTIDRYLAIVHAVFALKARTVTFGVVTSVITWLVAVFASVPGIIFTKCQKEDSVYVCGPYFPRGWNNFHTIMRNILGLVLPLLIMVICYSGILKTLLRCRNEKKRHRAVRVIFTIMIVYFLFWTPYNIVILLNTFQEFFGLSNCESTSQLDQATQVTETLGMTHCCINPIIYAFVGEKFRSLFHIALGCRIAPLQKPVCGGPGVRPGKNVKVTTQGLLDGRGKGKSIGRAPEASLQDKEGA", "experiment": "competition with 0.1 nM [125I]MCP-1 on fresh PBMC, filtration and scintillation counting", "protocol": "(§1) MCP-1 binding was performed in a final volume of 0.1 ml of 50 mM Hepes pH 7.4, 1 mM CaCl₂, 5 mM MgCl₂, 0.02% sodium azide, 0.5% BSA (HBB), containing either 2.5 μg THP-1 membrane protein or 500,000 PBMC and 0.1 nM of [¹²⁵I]-MCP-1. Competition binding experiments were performed by including variable concentrations of unlabeled MCP-1, 1D9 antibody, or a negative control IgG2a. Nonspecific binding was determined following the addition of a 2500-fold excess of unlabeled MCP-1. Samples were incubated for 60 minutes at room temperature, and bound and free tracer were separated by filtration through 96-well GF/B filterplates presoaked in 0.3% polyethyleneimine. The filters were washed in HBB further supplemented with 0.5 M NaCl, dried, and the amount of bound radioactivity determined by liquid scintillation counting. mAb 1D9 inhibits [¹²⁵I]MCP-1 binding to THP-1 cell membranes with an IC₅₀ of about 0.004 μg/ml (approximately 0.02 nM; FIG. 4) and to fresh PBMC with an IC₅₀ of 0.04 μg/ml (approximately 0.2 nM; FIG. 5)."}, "[2]": {"target": "T1, human CC-chemokine receptor 2 (CCR2), …", "experiment": "competition with 0.1 nM [125I]MCP-1 on THP-1 cell membranes, filtration and scintillation counting", "protocol": "FIG. 4 illustrates that mAb 1D9 inhibits [¹²⁵I]MCP-1 binding to THP-1 cell membranes. 3.0 μg of THP-1 membrane protein was incubated with 0.1 nM [¹²⁵I]MCP-1 in the presence of various concentrations of 1D9 or the isotype-matched anti-CXCR3 antibody 1C6. The amount of bound tracer was determined by separation of free from bound by filtration and scintillation counting. The data was analyzed to determine the IC₅₀ value by non-linear regression using a 4-parameter logistic equation with KaleidaGraph software.\nas §1, with “Samples were incubated for 60 minutes at room temperature, and bound and free tracer were separated by filtration through 96-well GF/B filterplates presoaked in 0.3% polyethyleneimine.” left out"}, "[3]": {"target": "T2, CCR1 expressed on L1/2 transfectants (UniProt P32246 1-355, limits assumed)", "T2 construct": "whole, on cells; also called CCR1 transfectants", "T2 sequence (looked up)": "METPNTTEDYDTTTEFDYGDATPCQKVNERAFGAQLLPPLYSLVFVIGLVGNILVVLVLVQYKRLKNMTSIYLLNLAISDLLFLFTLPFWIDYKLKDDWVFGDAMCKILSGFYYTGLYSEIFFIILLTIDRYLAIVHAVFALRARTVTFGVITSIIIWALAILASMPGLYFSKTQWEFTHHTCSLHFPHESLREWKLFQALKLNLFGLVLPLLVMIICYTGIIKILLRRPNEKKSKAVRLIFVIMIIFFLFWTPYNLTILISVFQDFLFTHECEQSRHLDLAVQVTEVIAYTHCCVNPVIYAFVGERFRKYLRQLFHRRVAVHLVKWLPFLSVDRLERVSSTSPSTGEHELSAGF", "experiment": "flow cytometry on L1/2 transfectants, hybridoma supernatant", "protocol": "(§2) For the staining of cultured transfectant cell lines 0.5×10⁶ cells in 50 μl were resuspended in PBS+1% FCS in a 96 well polystyrene V-bottom plate. 50 μl of primary antibody supernatants or HT medium (negative control) were added, and the samples were incubated at 4° C. for 30 min. 100 μl of PBS were added and the cells were pelleted by centrifugation and washed once with PBS. The pellet was resuspended in 100 μl PBS+1% FCS containing FITC-conjugated goat anti-mouse IgG antibody (a 1:250 dilution) and incubated for thirty minutes at […] in the dark. The cells were washed twice with PBS, resuspended in PBS, and analyzed by flow cytometry with a FacScan cytometer using the CellQuest software (Becton-Dickenson) Cells were fixed with PBS/1% formaldehyde if they were not to be analyzed the same day. Monoclonal antibodies 1D9 and 8G2 stain CCR2 transfectants but not CCR1 or CCR5 transfectants (FIGS. 1A-10)."}, "[4]": {"target": "T3, CCR5 expressed on L1/2 transfectants (UniProt P51681 1-352, limits assumed)", "T3 construct": "whole, on cells; also called CCR5 transfectants", "T3 sequence (P51681 whole entry)": "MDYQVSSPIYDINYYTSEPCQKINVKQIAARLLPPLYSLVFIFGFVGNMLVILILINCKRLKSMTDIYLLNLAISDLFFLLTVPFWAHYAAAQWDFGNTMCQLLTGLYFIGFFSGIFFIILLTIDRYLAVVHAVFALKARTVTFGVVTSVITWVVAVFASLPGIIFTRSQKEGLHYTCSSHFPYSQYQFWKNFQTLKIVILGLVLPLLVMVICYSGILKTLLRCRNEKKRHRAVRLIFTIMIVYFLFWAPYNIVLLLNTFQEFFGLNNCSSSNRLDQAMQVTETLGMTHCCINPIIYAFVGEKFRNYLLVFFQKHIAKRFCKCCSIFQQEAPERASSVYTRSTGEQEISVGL", "experiment": "flow cytometry on L1/2 transfectants, hybridoma supernatant", "protocol": "as §2"}}, "note": "“And” between values parts separate entries of the source, which are not always exact repeats. Equal values may be shown once."}
{"binder": "murine monoclonal antibody LS132.1D9 (antibody, V domains shown, Whole murine monoclonal antibody from hybridoma ATCC HB-12549, with a kappa light chain; The controls are called isotype-matched or murine IgG2a, which implies IgG2a; It was used as hybridoma supernatant in the FACS staining; also called mAb 1D9; mus-1D9) VH: EVQLVESGGGLVQPKGSLKLSCAASGFSFNAYAMNWVRQAPGKGLEWVARIRTKNNNYATYYADSVKDRYTISRDDSESMLFLQMNNLKTEDTAMYYCVTFYGNGVWGTGTTVTVSS VL: not shown", "values": [{"measurement": "IC50", "setting": "[1]", "value": "0.04 µg/mL and ~0.2 nM"}, {"measurement": "IC50", "setting": "[2]", "value": "~0.004 µg/mL and ~0.02 nM"}, {"measurement": "binding result", "setting": "[3]", "value": "no binding"}, {"measurement": "binding result", "setting": "[4]", "value": "no binding"}]}
